# Target: T1, human transferrin receptor 1 (hTfR) (human, UniProt P02786 89-760, limits assumed)
# T1 construct: also called TFRC; transferrin receptor protein 1
# Assay: in vitro binding screen, method not described
# T1 sequence (P02786 89-760 limits assumed): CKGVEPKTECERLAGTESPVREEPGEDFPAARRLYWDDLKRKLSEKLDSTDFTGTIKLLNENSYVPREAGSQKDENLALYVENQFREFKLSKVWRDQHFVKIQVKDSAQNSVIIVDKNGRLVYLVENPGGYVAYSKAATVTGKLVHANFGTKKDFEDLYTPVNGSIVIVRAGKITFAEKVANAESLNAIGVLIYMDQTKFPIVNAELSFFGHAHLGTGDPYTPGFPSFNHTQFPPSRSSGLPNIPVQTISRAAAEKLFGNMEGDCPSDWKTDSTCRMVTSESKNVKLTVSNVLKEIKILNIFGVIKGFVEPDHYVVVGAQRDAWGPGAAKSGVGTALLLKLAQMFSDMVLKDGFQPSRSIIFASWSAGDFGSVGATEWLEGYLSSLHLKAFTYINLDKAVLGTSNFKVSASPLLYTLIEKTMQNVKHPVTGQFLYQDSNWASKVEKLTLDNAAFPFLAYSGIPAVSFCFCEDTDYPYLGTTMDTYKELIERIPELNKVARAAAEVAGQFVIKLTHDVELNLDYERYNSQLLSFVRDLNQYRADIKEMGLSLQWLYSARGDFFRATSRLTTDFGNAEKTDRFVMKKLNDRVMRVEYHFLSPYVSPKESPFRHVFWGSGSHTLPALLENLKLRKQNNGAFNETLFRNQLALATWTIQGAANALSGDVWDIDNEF
row,binding result,Binder
1,binds,"69332 (antibody, V domains shown, Anti-hTfR antibody of the initial screen; only variable domains are tied to it) VH: QVTLRESGPALVKPSQTLTLTCTFSGFSLNTYGMFVSWIRQPPGKALEWLAHIHWDDDKYYSTSLKTRLTISKDTSKNQVVLTMTNMDPVDTATYYCARGHNNLNYIIHWGQGTLVTVSS VL: AIQMTQSPSSLSASVGDRVTITCRASQGIRNDLGWYQQKPGKAPKLLIYAASTLQSGVPSRFSGSGSGTDFTLTISSLQPEDFATYYCLQDYNYPFTFGPGTKVDIK"
2,binds,"69326 (antibody, V domains shown, Anti-hTfR antibody of the initial screen; only variable domains are tied to it) VH: EVQLVESGGGLVQPGGSLRLSCAVSGFIFSSYEMNWVRQAPGKGLEWVSYISSSGSTIFYADSVKGRFTISRDNAKNSLYLQMNSLRAEDTAVYYCVSGVVLFDVWGQGTMVTVSS VL: EIVMTQSPATLSVSPGERATLSCRASQSVSSNFAWYQQKPGQAPRLLIYSASSRATGIPVRFSGSGSGTEFTLTISSLQSEDFAVYYCQQYNIWPRTFGQGTKVEIK"
3,binds,"69340 (antibody, V domains shown, Anti-hTfR antibody of the initial screen; only variable domains are tied to it) VH: EVQLVESGGGLVQPGRSLRLSCAASGFTFDDKAMHWVRQVPGKGLEWISGISWNSGTIGYADSVKGRFIISRDNAKNSLYLQMNSLRAEDTALYYCAKDGDTSGWYWYGLDVWGQGTTVTVSS VL: EIVLTQSPATLSLSPGERATLSCRASQSVSSYLAWYQQKPGQAPRLLIHDVSNRATGIPARFSGSGSGTDFTLTISSLEPEDFVVYYCQQRSDWPITFGQGTRLEIK"
4,binds,"69348 (antibody, V domains shown, Anti-hTfR antibody of the initial screen; only variable domains are tied to it) VH: QVQLVESGGGVVQPGRSLRLSCAASGFTFTTYGMHWVRQAPGKGLEWVAVIWYDGSNKYYGDSVKGRFTISRDNSKNTLYLQMNSLRVDDTAVYYCTRTHGYTRSSDGFDYWGQGTLVTVSS VL: DIQMTQSPSSLSASVGDRVTITCRASQSIRNVLGWFQQKPGKAPQRLIYAASSLQSGVPSRFSGSGSGTEFTLTISSLQPEDFATYYCLQHNFYPLTFGGGTKVEIK"
5,binds,"69331 (antibody, V domains shown, Anti-hTfR antibody of the initial screen; only variable domains are tied to it) VH: QVQLVESGGGVVQPGRSLRLSCIASGFTFSVYGIHWVRQAPGKGLEWMAVISHDGNIKHYADSVKGRFTISRDNSKNTLYLQINSLRTEDTAVYYCAKDTWNSLDTFDIWGQGTMVTVSS VL: DIQLTQSPSSLSASVGDRVTITCWASQGISSYLAWYQQKPGKAPKLLIYAASTLQSGVPSRFSGSGSGTEFTLTISSLQPEDFATYYCQQLNSYPLTFGGGTKVEIK"

# — patent US20230338477A1 (published 2023)
